As a reminder, the EC50 is the midpoint of the concentration-response curve. A lower EC50 goes with greater potency. A word on the Kd: it is the equilibrium constant for the complex coming apart. By koff is commonly meant a measure of how fast the partners let go of each other. High values mean fast dissociation, low ones slow dissociation. As a reminder, the kon is the rate constant with which the complex forms. The low end stands for slower complex formation, the high end for faster complex formation. Usually t½ stands for how long it takes for the measured level to halve.

The target in experiment [1] is T1, HLA-A2/HPV16E7:11-19 on peptide-pulsed T2 cells (human; human papillomavirus type 16). Briefly: MSD cell binding, T2.
Description: To determine anti-HLA-A2/HPV16E7 monoclonal antibody specificity, peptide-pulsed T2 cells loaded with target or off-target peptides (identified in the previous Example) were used. […] Approximately 6 million T2 cells per T-75 flask were cultured for 24 hours at 26° C. in 9 mL of AIM V® Medium containing 10 μg of human b2m and 100 μg of HPV16E7 peptide or off-target peptide (Tables 6 and 7). Peptide-loaded T2 cells were washed once with PBS without Ca2+/Mg2+ and counted. Approximately 10,000 cells per well of the peptide-loaded T2 or untreated T2 in cell washing buffer were seeded into the 96-well carbon electrode plates (MULTI-ARRAY high bind plate, MSD) and incubated for 1 hour at 37° C. to allow cells to adhere to the plate. Nonspecific binding sites were blocked using 2% BSA (w/v) in PBS for 1 hour at room temperature. […] Plates were incubated for 1 hour at room temperature, then washed to remove the unbound antibody using an AquaMax2000 plate washer (MDS Analytical Technologies). Plate-bound antibodies were detected with SULFO-TAG™-conjugated goat polyclonal anti-human IgG antibody specific for the Fc gamma fragment (Jackson Immunoresearch, Meso Scale Discovery) for 1 hour at room temperature. After washes, the plates were developed with the Read Buffer (MSD) according to manufacturer's recommended procedure, and the luminescent signals were recorded with a SECTOR Imager 600 (Meso Scale Discovery) instrument. The luminescence intensity, measured in relative light units (RLU), was recorded to indicate the binding intensity of each antibody at the range of concentrations.
In experiment [2] the target is monomeric HLA-A2:HPV16E7(11-19) peptide complex, soluble (human; human papillomavirus type 16). The experiment can be described thus: SPR 25C, mAb captured.
Experiment [3] concerns the target T2, HLA-A2 with off-target peptide CHPF:463:471 on pulsed T2 cells (human).
T2 construct: also called Chondroitin sulfate synthase 2
Briefly: FACS, T2, 10 ug/ml.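 Note: Peptide-pulsed T2 cells held overnight at 26 °C, then stained with antibodies at 10 µg/ml, WI values reported as fold change versus unstained cells.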
Description: (§1) T2 cells were then incubated overnight at 26° C., washed in staining buffer and stained with the indicated antibodies at a concentration of 10 μg/ml following the protocol described above. WI values were calculated and presented as fold change over unstained cells.

For experiment [4], the target named is T3, HLA-A2 with off-target peptide CBL:83-91 on pulsed T2 cells (human).
T3 construct: also called E3 ubiquitin-protein ligase CBL
The experiment can be described thus: FACS, T2, 10 ug/ml. (In flow cytometry, cells or beads pass a laser one at a time.)
Description: as §1

For experiment [5], the target named is HLA-A2 with off-target peptide PKD1:2694-2702 on pulsed T2 cells (human). Briefly: FACS, T2, 10 ug/ml.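 Note: Peptide-pulsed T2 cells held overnight at 26 °C, then stained with antibodies at 10 µg/ml, WI values reported as fold change versus unstained cells.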
Description: as §1
In experiment [6] the target is HLA-A2 with off-target peptide SBK3:285-293 on pulsed T2 cells (human). Briefly: FACS, T2, 10 ug/ml.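 Note: Peptide-pulsed T2 cells held overnight at 26 °C, then stained with antibodies at 10 µg/ml, WI values reported as fold change versus unstained cells.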
Description: as §1
The target in experiment [7] is T4, HLA-A2 with off-target peptide SH3GLB1:244-252 on pulsed T2 cells (human).
T4 construct: also called Endophilin-B1
Briefly: FACS, T2, 10 ug/ml.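 Note: Peptide-pulsed T2 cells held overnight at 26 °C, then stained with antibodies at 10 µg/ml, WI values reported as fold change versus unstained cells.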
Description: as §1

For experiment [8], the target named is T1, HLA-A2/HPV16E7:11-19 on peptide-pulsed …. The experiment can be described thus: FACS, T2, 10 ug/ml.
Description: as §1
The target of experiment [9] is HLA-A2 with off-target peptide CAMKK1:388-396 on pulsed T2 cells (human). Briefly: FACS, T2, 10 ug/ml.
Description: as §1
Experiment [10] addresses HLA-A2 with off-target peptide PPP4R4:20-28 on pulsed T2 cells (human). Briefly: FACS, T2, 10 ug/ml.
Description: as §1
Experiment [11] addresses HLA-A2 with off-target peptide USP47:691-699 on pulsed T2 cells (human). The experiment can be described thus: FACS, T2, 10 ug/ml.
Description: as §1
Experiment [12] addresses HLA-A2 with off-target peptide NBR1:357-365 on pulsed T2 cells (human). Briefly: FACS, T2, 10 ug/ml.
Description: as §1
In experiment [13] the target is HLA-A2 with HPV16E7:11-19 alanine scanning peptide […] (L13A) on pulsed T2 cells (human; human papillomavirus type 16). The experiment can be described thus: FACS, T2, Ala scan.
Description: (§2) Alanine scanning was performed to determine which residues in the HPV16E7:11-19 peptide were critical for antibody binding. T2 cells were pulsed with alanine scanning peptides and stained with HPV16E7:11-19 antibodies as described above.
In experiment [14] the target is HLA-A2 with HPV16E7:11-19 alanine scanning peptide […] (L15A) on pulsed T2 cells (human; human papillomavirus type 16). Briefly: FACS, T2, Ala scan.
Description: as §2

Numbering of substitutions follows the chain as printed.

B1: H4sH21080P (antibody, V domains shown)
VH: EVQLVESGGGLVQPGGSLRLSCAASGFTFSSYAMSWVRQAPGKGLEWVSGISGSGGTTYDADSVKGRFTISRDNSKNTLYLQMHSLRAEDTAAYYCAKDWNYGPYYYFGMDVWGQGTTVTVSS
VL: not shown
B1 had an EC50 in experiment [1] of 0.22 nM. In experiment [2], this molecule had a dissociation constant (Kd) of 218 nM, a koff of 0.039 s⁻¹, an on-rate (kon) of 179000 M⁻¹ s⁻¹ and a t½ of 0.3 min.

B2: H4sH17670P (antibody, V domains shown)
VH: EVQLVESGGDLVQPGTSLRLSCEASGFTLSFYAMYWVRQAPGKELELVSGISGNGESMFYGNSVKGRFSISRDNSKNTLYLQMGSVRAEDMAVYYCARAYASGNSYFFYYGMDVWGQGTTVTVSS
VL: not shown
Turning to B2, in experiment [1], the EC50 was 1.3 nM. The affinity in experiment [2], expressed as Kd, was 17.5 nM.

B3: H4sH21079P (antibody, V domains shown)
VH: EVQLVESGGGLVKPGGSLRLSCAASGFTFSNAWMSWVRQAPGKGLEWVGRIKTRADGGTTDYAAPVKGRFTISRDDSKNTLYLQLNSLKTEDTAVYYCTSHNWNYEDFDYWGQGTLVTVSS
VL: DIQMTQSPSSLSASVGDRVTITCRASQSISNYLNWYQQKPGKAPKLLIYAASSLQSGVPSRFSGSGSGTDFTLTISSLQPEEFATYYCQQSYSIPYTFGQGTKLEIK
In experiment [1], B3 yielded an EC50 of 1.1 nM. In [2], this molecule showed a dissociation constant (Kd) of 290 nM, a koff of 0.0109 s⁻¹, a kon of 37400 M⁻¹ s⁻¹ and a t½ of 1.1 min.

B4: H4sH17930N (antibody, V domains shown)
VH: EVQLVESGGGLVQPGGSLRLSCAASGFTFSYYALHWVRQAPGKGLEYVSAISGNGGSTYYADSVKGRFTISRDKSMSTVYLQVGSLRAEDMAVYYCARSYASSSDYHYYYGMDVWGQGTTVTVSS
VL: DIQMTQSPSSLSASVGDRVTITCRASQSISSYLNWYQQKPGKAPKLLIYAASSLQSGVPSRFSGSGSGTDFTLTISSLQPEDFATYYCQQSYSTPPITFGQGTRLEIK
With B4, the EC50 in experiment [1] amounted to 3.1 nM. Moreover, in [2], the affinity, expressed as Kd, was 10.2 nM and the t½ is 14.5 min.

B5: H4sH17930N2 (antibody, V domains shown)
VH: B4 VH
VL: not shown
In [2], B5 displayed a Kd of 9.57 nM and a t½ of 14.6 min.

B6: H4sH21064P (antibody, V domains shown)
VH: EVQLVESGGGLVQPGGSLRLSCAASGFTFTFYAMHWVRQAPGKGLEYVSGISSNGGSTKYADSVKGRFTISRDNSKNTLYLQMGSLRAEDLAVYYCARSYASSSDYHYYYGMDVWGQGTTVTVSS
VL: not shown
Regarding B6, in [2], the Kd turned out to be 14.4 nM and the t½ is 14.6 min.

B7: H4sH17675P (antibody, V domains shown)
VH: EVQLVESGGGLVQPGASLRLSCEASGFTLSFYAMHWVRQAPGKELEYVSGISGNGNSIYYRDSVKGRFTISRDNSKNTLYLQMGSVGAEDMAVYYCARSYSSGNSYYYYYGMDVWGQGTTVTVSS
VL: DIQMTQSPSSLSASVGDRITITCRASQSISSYLNWYQQKPGKAPNLLIYAASNLQSGVPSRFSGSGSGTDFTLTISSLQPEDFATYYCQQSYSTPPITFGQGTRLEIKR
Turning to B7, in experiment [1], the concentration for a half-maximal effect (EC50) was found to be 1.1 nM. The “Fold change over unstained” value in experiment [3] was 5 fold; in [4] it was 4.9 fold; in [5] it was 2.9 fold; in [6] it was 2.9 fold; in experiment [7], 10.5 fold; in experiment [8], 1200 fold. Also, the “Fold change over unstained” value was 2.4 fold in experiment [9], 5.5 fold in [10], 13.3 fold in experiment [11] and 2.2 fold in experiment [12]. Besides, the Kd in experiment [2] worked out at 23.1 nM. For the same molecule, the koff in experiment [2] came to 0.00138 s⁻¹. Also, in [2], the kon turned out to be 59900 M⁻¹ s⁻¹. In experiment [2], the t½ came to 8.4 min. The “FACS binding (fold over unstained)” value in experiment [13] was found to be 527 fold; in experiment [14] it was 1150 fold.

B8: H4sH17672P (antibody, V domains shown)
VH: B7 VH with A33S, K43R, S57N, Y80N, G87R, A92G, Y107N
VL: DIQMTQSPSSLSASVGDRVTITCRASQTISSYLNWYQQKPGKAPKLLIYAVSNLQSGVPSRFSGSGSGTDFTLTISSLQPEDFATYYCQQSYSTPPITFGQGTRLEIK
As to B8, the midpoint of the response in [1], the EC50, lay at 0.45 nM. In experiment [2], this molecule registered a dissociation constant (Kd) of 6.37 nM, a koff of 0.000819 s⁻¹, an on-rate (kon) of 129000 M⁻¹ s⁻¹ and a t½ of 14.1 min.

B9: H4sH17363N (antibody, V domains shown)
VH: EVQLLESGGGLVQPGGSLRLSCAASGFTFSSYAMTWVRQAPGMGLEWVSVISGSGSETYYADSVKGRFTISRDNSKNTLYLQMNSLRAEDTAVYYCVKDSSYRSSSRAYYYYGMDVWGLGTTVTVSS
VL: B7 VL with I19V, N45K, A51V, N53I, S76N, Y87S, S91T
Regarding B9, the midpoint of the response in experiment [1], the EC50, lay at 2.1 nM. Besides, the “Fold change over unstained” value in [3] was found to be 7.4 fold; in experiment [4] it was 19.5 fold; in experiment [5], 1.2 fold; in [6] it was 0.4 fold; in [7], 13.6 fold; in [8], 1000 fold. In addition, the “Fold change over unstained” value worked out at 2 fold in experiment [9], 6.1 fold in experiment [10], 0.6 fold in experiment [11] and 3.6 fold in experiment [12]. Also, the Kd in [2] is 17.6 nM. Further, the off-rate constant (koff) in experiment [2] was 0.00154 s⁻¹. In [2], the kon stood at 87200 M⁻¹ s⁻¹. The molecule further gave a t½ in experiment [2] of 7.5 min. The entries for the “FACS binding (fold over unstained)” value in [13] and in experiment [14] were 530 fold and 1020 fold, respectively.

B10: H4sH17364N (antibody, V domains shown)
VH: B9 VH with M43K
VL: B7 VL with I19V, N45K, A51V, N53I, Y87S, S91T
Molecule B10 came in with an EC50 in [1] of 2 nM. The “Fold change over unstained” value in experiment [3] was 10.9 fold; in experiment [4], 23.9 fold; in [5] it was 1 fold; in experiment [6] it was 0.8 fold; in experiment [7], 15.2 fold; in experiment [8], 986 fold. For the same molecule, the “Fold change over unstained” value in experiment [9] was found to be 1 fold; in [10], 9 fold; in experiment [11], 1.3 fold; in experiment [12], 3 fold. Further, the Kd in experiment [2] was 18.3 nM. For the same molecule, in [2], the koff was 0.00157 s⁻¹. The molecule further came in with a kon in experiment [2] of 85600 M⁻¹ s⁻¹. For the same molecule, the t½ in [2] turned out to be 7.4 min. The figures for the “FACS binding (fold over unstained)” value in experiment [13] and in [14] were 490 fold and 1010 fold, respectively.
